Assay results: US8840891 (RSR, dated 2014)
Like-named read-outs stand apart in the source and are kept apart here.

Legend:
Assay in all cases: cell-based or functional assay
[1] = target: TSHR Asp151Ala expressed in CHO cells (human) (UniProt P16473)
[2] = target: TSHR I568T (activating mutation) expressed in CHO cells (human) (UniProt P16473)
[3] = target: TSHR Lys183Ala expressed in CHO cells (human) (UniProt P16473)
[4] = target: TSHR with Asp43 mutated to Alanine expressed on CHO cells (human) (UniProt P16473)
[5] = target: TSHR with activating mutation A623I expressed on CHO cells (human) (UniProt P16473)
[6] = target: TSHR with activating mutation I568T expressed on CHO cells (human) (UniProt P16473)
[7] = target: TSHR with activating mutation S281I expressed on CHO cells (human) (UniProt P16473)
[8] = target: human TSHR (wild type) expressed in CHO cells (human) (UniProt P16473)
[9] = target: wild type human TSHR (thyrotropin receptor) expressed on CHO cells (human) (UniProt P16473)
[10] = target: TSHR with Glu251 mutated to Alanine expressed on CHO cells (human) (UniProt P16473)
[11] = target: wild type human TSHR (thyrotropin receptor) expressed on CHO cells (human) (UniProt P16473); remark: listed apart in the source

B1: 5C9 IgG (human monoclonal autoantibody to the TSHR) (antibody, from another filing, V domains shown)
VH: EVQLVESGGGLIQPGGSLRLSCAASGFTVSSNYMSWVRQAPGKGLEWVSVTYSGGSTSYADSVKGRFTISRDNSKNTLYLQMNSLRAEDTAVYYCARGGRYCSSISCYARSGCDYWGQGTLVTVSS
VL: AIQMTQSPSSLSASVGDRVTITCRASQSISNYLNWYQQKPGKAPKLLIYAASSLQSGVPSRFSGSGSGTDFTLTISSLQPEDFATYYCQQSYSSPSTTFGQGTKLEIK
% inhibition of TSH stimulation of cyclic AMP; 5C9 IgG 1 µg/mL [1]: 49%
% inhibition of basal cyclic AMP activity; 5C9 IgG 1 µg/mL [2]: 83%
% inhibition of TSH stimulation of cyclic AMP; 5C9 IgG 1 µg/mL [3]: 28%
% inhibition of TSH stimulation of cyclic AMP; 5C9 IgG 100 µg/mL [3]: 43%
Cyclic AMP produced; 5C9 0.01 µg/mL + TSH (fmol/cell well) [4]: 12700
Cyclic AMP produced; 5C9 0.1 µg/mL + TSH (fmol/cell well) [4]: 6730
Cyclic AMP produced; 5C9 1.0 µg/mL + TSH (fmol/cell well) [4]: 471
Cyclic AMP produced; 5C9 10 µg/mL + TSH (fmol/cell well) [4]: 119
Cyclic AMP produced; 5C9 100 µg/mL + TSH (fmol/cell well) [4]: 31
Cyclic AMP produced; 5C9 100 µg/mL only (fmol/cell well) [4]: 206
Mutated/wild type (%); 5C9 0.01 µg/mL + TSH [4]: 97%
Mutated/wild type (%); 5C9 0.1 µg/mL + TSH [4]: 86%
Mutated/wild type (%); 5C9 1.0 µg/mL + TSH [4]: 23%
Mutated/wild type (%); 5C9 10 µg/mL + TSH [4]: 39%
Mutated/wild type (%); 5C9 100 µg/mL + TSH [4]: 37%
Mutated/wild type (%); 5C9 100 µg/mL only [4]: 438%
Cyclic AMP concentration (basal) in the presence of 5C9 IgG (1 µg/mL) (fmol/cell well) [5]: 1910
inhibition of basal cyclic AMP activity; 5C9 IgG at 1 µg/mL [5]: 49%
Cyclic AMP concentration (basal) in the presence of 5C9 IgG (1 µg/mL) (fmol/cell well) [6]: 548
Cyclic AMP concentration (basal) in the presence of 5C9 IgG (1 µg/mL) (fmol/cell well) [7]: 655
% inhibition of TSH stimulation of cyclic AMP; 5C9 IgG 1 µg/mL; wild type in the Asp151Ala experiment [8]: 88%
% inhibition of TSH stimulation of cyclic AMP; 5C9 IgG 1 µg/mL; wild type in the Lys183Ala experiment [8]: 84%
% inhibition of TSH stimulation of cyclic AMP; 5C9 IgG 100 µg/mL; wild type in the Lys183Ala experiment [8]: 93%
activity in blocking TSH stimulation of cyclic AMP, relative to donor serum IgG [8]: 3900 times
basal cyclic AMP level relative to cyclic AMP assay buffer; 5C9 IgG 1 µg/mL; CHO cells with approximately 5x10^5 wild type TSHRs per cell [8]: 33%
cyclic AMP production; 5C9 IgG 0.001 µg/mL + M22 Fab 3 ng/mL (fmol/cell well) [8]: 11600
cyclic AMP production; 5C9 IgG 0.001 µg/mL + pTSH 3 ng/mL (fmol/cell well) [8]: 14100
cyclic AMP production; 5C9 IgG 0.001 µg/mL only (fmol/cell well) [8]: 554
cyclic AMP production; 5C9 IgG 0.01 µg/mL + M22 Fab 3 ng/mL (fmol/cell well) [8]: 9980
cyclic AMP production; 5C9 IgG 0.01 µg/mL + pTSH 3 ng/mL (fmol/cell well) [8]: 15000
cyclic AMP production; 5C9 IgG 0.01 µg/mL only (fmol/cell well) [8]: 578
cyclic AMP production; 5C9 IgG 0.1 µg/mL + M22 Fab 3 ng/mL (fmol/cell well) [8]: 1300
cyclic AMP production; 5C9 IgG 0.1 µg/mL + pTSH 3 ng/mL (fmol/cell well) [8]: 3920
cyclic AMP production; 5C9 IgG 0.1 µg/mL only (fmol/cell well) [8]: 404
cyclic AMP production; 5C9 IgG 1 µg/mL + M22 Fab 3 ng/mL (fmol/cell well) [8]: 956
cyclic AMP production; 5C9 IgG 1 µg/mL + pTSH 3 ng/mL (fmol/cell well) [8]: 1870
cyclic AMP production; 5C9 IgG 1 µg/mL only (fmol/cell well) [8]: 376
cyclic AMP production; 5C9 IgG 10 µg/mL + M22 Fab 3 ng/mL; mean of duplicate samples (fmol/cell well) [8]: 638
cyclic AMP production; 5C9 IgG 10 µg/mL + pTSH 3 ng/mL (fmol/cell well) [8]: 1030
cyclic AMP production; 5C9 IgG 10 µg/mL only (fmol/cell well) [8]: 360
cyclic AMP production; 5C9 IgG 100 µg/mL + M22 Fab 3 ng/mL (fmol/cell well) [8]: 354
cyclic AMP production; 5C9 IgG 100 µg/mL + pTSH 3 ng/mL (fmol/cell well) [8]: 1090
cyclic AMP production; 5C9 IgG 100 µg/mL only (fmol/cell well) [8]: 426
cyclic AMP; 5C9 IgG 0.01 µg/mL + pTSH (3 ng/mL) (fmol/cell well) [8]: 19000
cyclic AMP; 5C9 IgG 0.02 µg/mL + pTSH (3 ng/mL) (fmol/cell well) [8]: 16400
cyclic AMP; 5C9 IgG 0.04 µg/mL + pTSH (3 ng/mL) (fmol/cell well) [8]: 13900
cyclic AMP; 5C9 IgG 0.06 µg/mL + pTSH (3 ng/mL); single determination (fmol/cell well) [8]: 13300
cyclic AMP; 5C9 IgG 0.08 µg/mL + pTSH (3 ng/mL) (fmol/cell well) [8]: 14500
cyclic AMP; 5C9 IgG 0.1 µg/mL + pTSH (3 ng/mL) (fmol/cell well) [8]: 11900
cyclic AMP; 5C9 IgG 0.5 µg/mL + pTSH (3 ng/mL) (fmol/cell well) [8]: 4750
cyclic AMP; 5C9 IgG 1 µg/mL + pTSH (3 ng/mL) (fmol/cell well) [8]: 2210
cyclic AMP; 5C9 IgG only 1 µg/mL (fmol/cell well) [8]: 141
cyclic AMP; Example 1; 5C9 IgG 10 µg/mL + TSH (fmol/cell well) [8]: 247
cyclic AMP; Example 1; 5C9 IgG 100 µg/mL + TSH (fmol/cell well) [8]: 754
cyclic AMP; Example 1; 5C9 IgG 100 µg/mL only (fmol/cell well) [8]: 237
cyclic AMP; Example 2; 5C9 IgG 10 µg/mL + TSH (fmol/cell well) [8]: 723
cyclic AMP; Example 2; 5C9 IgG 100 µg/mL + TSH (fmol/cell well) [8]: 1110
cyclic AMP; Example 2; 5C9 IgG 100 µg/mL only (fmol/cell well) [8]: 338
inhibition of cyclic AMP production stimulated by patient serum T3; 5C9 IgG 100 µg/mL [8]: 50%
Cyclic AMP concentration (basal) in the presence of 5C9 IgG (1 µg/mL) (fmol/cell well) [9]: 1870
Cyclic AMP produced; 5C9 0.01 µg/mL + TSH (fmol/cell well) [9]: 13100
Cyclic AMP produced; 5C9 0.1 µg/mL + TSH (fmol/cell well) [9]: 7810
Cyclic AMP produced; 5C9 1.0 µg/mL + TSH (fmol/cell well) [9]: 2020
Cyclic AMP produced; 5C9 10 µg/mL + TSH (fmol/cell well) [9]: 306
Cyclic AMP produced; 5C9 100 µg/mL + TSH (fmol/cell well) [9]: 84
Cyclic AMP produced; 5C9 100 µg/mL only (fmol/cell well) [9]: 47
Cyclic AMP produced; Experiment 1; 5C9 0.01 µg/mL + TSH (fmol/cell well) [9]: 17000
Cyclic AMP produced; Experiment 1; 5C9 0.1 µg/mL + TSH (fmol/cell well) [9]: 5950
Cyclic AMP produced; Experiment 1; 5C9 1.0 µg/mL + TSH (fmol/cell well) [9]: 1060
Cyclic AMP produced; Experiment 1; 5C9 10 µg/mL + TSH (fmol/cell well) [9]: 496
Cyclic AMP produced; Experiment 1; 5C9 100 µg/mL + TSH (fmol/cell well) [9]: 193
Cyclic AMP produced; Experiment 1; 5C9 100 µg/mL only (fmol/cell well) [9]: 1270
Cyclic AMP produced; Experiment 2; 5C9 0.01 µg/mL + TSH (fmol/cell well) [9]: 18600
Cyclic AMP produced; Experiment 2; 5C9 0.1 µg/mL + TSH (fmol/cell well) [9]: 4220
Cyclic AMP produced; Experiment 2; 5C9 1.0 µg/mL + TSH (fmol/cell well) [9]: 738
Cyclic AMP produced; Experiment 2; 5C9 10 µg/mL + TSH (fmol/cell well) [9]: 214
Cyclic AMP produced; Experiment 2; 5C9 100 µg/mL + TSH (fmol/cell well) [9]: 238
Cyclic AMP produced; Experiment 2; 5C9 100 µg/mL only (fmol/cell well) [9]: 211
Cyclic AMP produced; 5C9 0.01 µg/mL + TSH (fmol/cell well) [10]: 22000
Cyclic AMP produced; 5C9 0.1 µg/mL + TSH (fmol/cell well) [10]: 15500
Cyclic AMP produced; 5C9 1.0 µg/mL + TSH (fmol/cell well) [10]: 5240
Cyclic AMP produced; 5C9 10 µg/mL + TSH (fmol/cell well) [10]: 1880
Cyclic AMP produced; 5C9 100 µg/mL + TSH (fmol/cell well) [10]: 1170
Cyclic AMP produced; 5C9 100 µg/mL only (fmol/cell well) [10]: 406
Mutated/wild type (%); 5C9 0.01 µg/mL + TSH [10]: 104%
Mutated/wild type (%); 5C9 0.1 µg/mL + TSH [10]: 180%
Mutated/wild type (%); 5C9 1.0 µg/mL + TSH [10]: 573%
Mutated/wild type (%); 5C9 10 µg/mL + TSH [10]: 250%
Mutated/wild type (%); 5C9 100 µg/mL + TSH [10]: 236%
Mutated/wild type (%); 5C9 100 µg/mL only [10]: 88%
Cyclic AMP produced; 5C9 0.01 µg/mL + TSH (fmol/cell well) [11]: 21200
Cyclic AMP produced; 5C9 0.1 µg/mL + TSH (fmol/cell well) [11]: 8640
Cyclic AMP produced; 5C9 1.0 µg/mL + TSH (fmol/cell well) [11]: 915
Cyclic AMP produced; 5C9 10 µg/mL + TSH (fmol/cell well) [11]: 752
Cyclic AMP produced; 5C9 100 µg/mL + TSH (fmol/cell well) [11]: 496
Cyclic AMP produced; 5C9 100 µg/mL only (fmol/cell well) [11]: 460
